# US20260250651, “CAS12 PROTEINS AND USES THEREOF” (GUANGZHOU REFORGENE MEDICINE CO., LTD., published 2026)
# T1: Cas12i-111 (N295R,N260R,G705R,L332R)
# T1 chain: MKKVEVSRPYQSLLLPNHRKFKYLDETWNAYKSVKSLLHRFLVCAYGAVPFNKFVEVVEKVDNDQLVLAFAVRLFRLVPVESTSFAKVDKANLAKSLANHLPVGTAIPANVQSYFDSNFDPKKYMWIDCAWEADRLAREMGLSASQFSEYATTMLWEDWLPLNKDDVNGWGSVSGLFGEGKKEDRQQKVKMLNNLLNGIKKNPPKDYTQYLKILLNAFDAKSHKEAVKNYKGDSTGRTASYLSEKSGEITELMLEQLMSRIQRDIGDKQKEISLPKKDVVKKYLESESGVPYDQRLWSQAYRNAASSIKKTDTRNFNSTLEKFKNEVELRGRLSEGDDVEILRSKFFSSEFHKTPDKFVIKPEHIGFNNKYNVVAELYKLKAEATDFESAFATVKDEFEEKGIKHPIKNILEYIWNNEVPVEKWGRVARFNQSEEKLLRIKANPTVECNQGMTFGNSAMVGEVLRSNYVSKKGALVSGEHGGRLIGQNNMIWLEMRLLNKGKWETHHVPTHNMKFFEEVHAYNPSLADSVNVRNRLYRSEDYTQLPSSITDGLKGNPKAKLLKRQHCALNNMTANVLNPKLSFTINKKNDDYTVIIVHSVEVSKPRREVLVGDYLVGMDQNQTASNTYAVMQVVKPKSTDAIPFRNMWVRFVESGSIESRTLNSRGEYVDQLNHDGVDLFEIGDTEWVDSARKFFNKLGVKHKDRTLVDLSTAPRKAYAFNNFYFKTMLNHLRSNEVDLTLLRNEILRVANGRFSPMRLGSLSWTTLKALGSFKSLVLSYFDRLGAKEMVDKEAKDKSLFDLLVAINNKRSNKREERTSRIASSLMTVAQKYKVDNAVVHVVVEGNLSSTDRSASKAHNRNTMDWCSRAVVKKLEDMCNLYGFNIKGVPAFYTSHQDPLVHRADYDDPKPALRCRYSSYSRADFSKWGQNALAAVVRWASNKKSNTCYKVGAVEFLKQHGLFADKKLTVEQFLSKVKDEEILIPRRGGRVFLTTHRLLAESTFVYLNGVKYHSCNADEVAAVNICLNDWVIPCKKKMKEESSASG
# T2: Cas12i-69 (N295R,N260R,G705R)
# T2 chain: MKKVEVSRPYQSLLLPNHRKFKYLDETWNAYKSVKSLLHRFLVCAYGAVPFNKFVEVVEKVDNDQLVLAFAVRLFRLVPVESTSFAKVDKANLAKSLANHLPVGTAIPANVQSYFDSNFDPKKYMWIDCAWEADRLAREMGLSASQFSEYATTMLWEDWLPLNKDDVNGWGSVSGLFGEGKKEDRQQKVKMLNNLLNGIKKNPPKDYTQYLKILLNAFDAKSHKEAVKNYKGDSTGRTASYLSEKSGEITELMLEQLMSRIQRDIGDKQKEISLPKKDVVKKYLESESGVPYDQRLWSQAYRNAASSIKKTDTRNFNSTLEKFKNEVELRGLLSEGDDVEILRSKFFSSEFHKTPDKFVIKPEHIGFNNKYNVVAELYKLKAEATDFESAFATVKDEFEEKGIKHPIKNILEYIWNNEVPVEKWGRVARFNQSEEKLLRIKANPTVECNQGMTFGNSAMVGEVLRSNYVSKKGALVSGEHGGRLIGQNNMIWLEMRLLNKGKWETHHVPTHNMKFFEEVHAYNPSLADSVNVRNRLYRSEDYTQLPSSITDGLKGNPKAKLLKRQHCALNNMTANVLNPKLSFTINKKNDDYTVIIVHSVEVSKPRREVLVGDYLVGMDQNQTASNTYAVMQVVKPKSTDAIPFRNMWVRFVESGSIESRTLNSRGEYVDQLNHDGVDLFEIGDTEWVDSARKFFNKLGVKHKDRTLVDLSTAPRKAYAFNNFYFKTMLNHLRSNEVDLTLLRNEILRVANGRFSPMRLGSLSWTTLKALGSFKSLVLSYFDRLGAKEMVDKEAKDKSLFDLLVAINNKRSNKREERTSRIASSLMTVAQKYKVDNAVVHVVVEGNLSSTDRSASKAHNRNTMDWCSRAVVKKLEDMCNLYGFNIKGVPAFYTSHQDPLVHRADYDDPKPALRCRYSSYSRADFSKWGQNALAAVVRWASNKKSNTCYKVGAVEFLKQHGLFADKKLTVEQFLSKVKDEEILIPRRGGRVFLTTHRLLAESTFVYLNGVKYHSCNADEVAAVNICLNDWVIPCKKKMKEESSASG
# B1: gRNA-TTR ; TTR target (ssRNA ; dsDNA)
# RNA: AGAGAAUGUGUGCAUAGUCACACCAGUAAGAUUUGGUGUCUAU
# DNA 1: CAGTAAGATTTGGTGTCTAT
# DNA 2: ATAGACACCAAATCTTACTG
# B2: gRNA-HBB ; HBB target (ssRNA ; dsDNA)
# RNA: AGAGAAUGUGUGCAUAGUCACACUAUGCAGAAAUAUUGCUAUUGCCU
# DNA 1: TATGCAGAAATATTGCTATTGCCT
# DNA 2: AGGCAATAGCAATATTTCTGCATA
# B3: gRNA-HBG ; HBG target (ssRNA ; dsDNA)
# RNA: AGAGAAUGUGUGCAUAGUCACACACAAGGCAAACUUGACCAAU
# DNA 1: ACAAGGCAAACTTGACCAAT
# DNA 2: ATTGGTCAAGTTTGCCTTGT
# Legend:
# Cas12i-111 = biological target: T1, Cas12i-111; experiment: cell_activity; 293T indels
# Experimental: (§1) Plating: The 293T cell line was plated when the confluence reached 70-80%, and the number of cells seeded in a 24-well plate was 5*10\hat{ }5 cells/well.
# (§2) Transfection: After 12-14 hours of plating, transfection was performed. 100 μl of Opti-MEM, 1.5 μl of PEI (Yisheng Bio, Polyethylenimine Linear (PEI) MW25000), 250 ng of the mutant clone plasmid from Example 2, and 250 ng of gRNA plasmid for targeting endogenous genes were added to each well of a 24-well plate. The mixture was incubated at room temperature for 20 minutes and then added to 293T cells for transfection. After transfection overnight, the medium was replaced with fresh medium and cultured for the next period.
# (§3) DNA extraction, PCR amplification, and Sanger sequencing: After culturing for 72 hours, cells were washed with PBS, and then 100 μl of cell lysis buffer (Viagen, DirectPCR® Lysis Reagent (Cell)) was added for lysis to obtain a lysate containing genomic DNA. The genomic DNA was amplified in the region near the target sequence, and the PCR product was sent to a sequencing company for Sanger sequencing.
# Cas12i-69 = biological target: T2, Cas12i-69; experiment: cell_activity; 293T indels; editing >15%
# Experimental: as §1, §2, §3
Binder,relative indel editing efficiency (Cas12i-111),indel editing efficiency (Cas12i-69),relative indel editing efficiency (Cas12i-69)
B1,3.91 fold of wild type,4.68 fold of wild type,
B2,1.01 fold of Cas12i-69,,1.58 fold of Cas12i-30
B3,1.53 fold of wild type,,
